Measurements published in EP4624499A1 (Immunotech Applied Science Limited, dated 2025).

T1: CMV pp65 peptide on HLA-A*11:01 (human)
T1 peptide: ATVQGQNLK

B1: Tenth group of TCR (TCR, V domains shown)
Valpha: AQTVTQSQPEMSVQEAETVTLSCTYDTSESDYYLFWYKQPPSRQMILVIRQEAYKQQNATENRFSVNFQKAAKSFSLKISDSQLGDAAMYFCAYRSFYTGANSKLTFGKGITLSVRP
Vbeta: DAGVTQSPTHLIKTRGQQVTLRCSPKSGHDTVSWYQQALGQGPQFIFQYYEEEERQRGNFPDRFSGHQFPNYSSELNVNALLLGDSALYLCASSLYGGPGDQPQHFGDGTRLSIL
B2: Tenth group of TCR (TCR, V domains shown)
V domain 1: QTVTQSQPEMSVQEAETVTLSCTYDTSESDYYLFWYKQPPSRQMILVIRQEAYKQQNATENRFSVNFQKAAKSFSLKISDSQLGDAAMYFCAYRSFYTGANSKLTFGKGITLSVRP
V domain 2: DAGVTQSPTHLIKTRGQQVTLRCSPKSGHDTVSWYQQALGQGPQFIFQYYEEEERQRGNFPDRFSGHQFPNYSSELNVNALLLGDSALYLCASSLYGGPGDQPQHFGDGTRLSILE
B3: Ninth group of TCR (TCR, V domains shown)
V domain 1: EDQVTQSPEALRLQEGESSSLNCSYTVSGLRGLFWYRQDPGKGPEFLFTLYSAGEEKEKERLKATLTKKESFLHITAPKPEDSATYLCVITTSGTYKYIFGTGTRLKVLA
V domain 2: NAGVTQTPKFQVLKTGQSMTLQCAQDMNHNSMYWYRQDPGMGLRLIYYSASEGTTDKGEVPNGYNVSRLNKREFSLRLESAAPSQTSVYFCASTINTYEQYFGPGTRLTVTE
B4: Ninth group of TCR (TCR, V domains shown)
Valpha: B3 V domain 1
Vbeta: NAGVTQTPKFQVLKTGQSMTLQCAQDMNHNSMYWYRQDPGMGLRLIYYSASEGTTDKGEVPNGYNVSRLNKREFSLRLESAAPSQTSVYFCASTINTYEQYFGPGTRLTVT

Legend:
[1] = molecular target: T1, CMV pp65 peptide on HLA-A*11:01; assay: multimer staining
[2] = molecular target: CMV pp65501-509 antigen complex on Caki-2-PP65 target cells (human; human cytomegalovirus, UniProt P61769 21-119); assay: cell-based or functional assay

Binder	binding result [1]	killing activity at 4 h (RTCA), Caki-2-PP65 target cells, effector-to-target ratio 1:1 [2] [%]	killing activity at 4 h (RTCA), Caki-2-PP65 target cells, effector-to-target ratio 5:1 (ratio cell blank in this row, taken from r7) [2] [%]	killing activity at 4 h (RTCA), Caki-2-PP65 target cells, effector-to-target ratio 10:1 [2] [%]	killing activity at 4 h (RTCA), Caki-2-PP65 target cells, effector-to-target ratio 5:1 [2] [%]
B1	recognises				
B2		23.5	61.2	67.4	
B3		7.1		61.5	44.5
B4	recognises				
